Laboratory results reported in article PMC5433940 (Chembiochem : a European journal of chemical biology, 2016).
Ends that are not written are not given here.

How the values were obtained:
p32 protein = molecular target: T1, p32 protein (Homo sapiens, UniProt Q07021); assay: Binding of peptide-displaying T7 phage clones to immobilized p32 protein; conditions: peptide displayed on T7 phage; compared to LyP-1 phage
T1 sequence (Q07021 74-282): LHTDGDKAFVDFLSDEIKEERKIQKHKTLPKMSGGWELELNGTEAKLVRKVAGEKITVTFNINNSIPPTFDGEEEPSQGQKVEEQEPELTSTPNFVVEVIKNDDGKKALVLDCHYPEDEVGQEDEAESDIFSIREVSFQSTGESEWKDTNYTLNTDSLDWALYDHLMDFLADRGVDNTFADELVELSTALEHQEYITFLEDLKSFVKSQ

[1] = molecular target: recombinant 6x-His-tagged p32 protein (p32/gC1qR) (UniProt Q07021); assay: AUC
[2] = molecular target: T2, recombinant 6x-His-tagged p32 protein (p32/gC1qR) (UniProt Q07021 74-282); assay: fluorescence polarisation
T2 sequence (looked up): T1 sequence (Q07021 74-282)

Molecule	phage binding to p32 (p32 protein)	also measured
CKRGNRSMC	greatly improved binding to p32 compared to LyP-1 phage	
CTRGSRSKC	greatly improved binding to p32 compared to LyP-1 phage	
recombinant 6x-His-tagged p32 protein (p32/gC1qR) (from UniProt Q07021 74-282) (natural protein; other documents disagree on this pair)		stoichiometry N [1]: 3
CGNKRTRGC (cysteine pairing not given here; also: FAM label, position not given here) [FAM-labeled LyP-1 peptide (CGNKRTRGC)]		Kd [2]: > 23 µM
